# Data taken from publication PMC5437702.
# Molecular target: activatory Fc gamma receptor III (FcγRIII), mouse (mouse) (UniProt P08508)
# Assay: SPR
# UniProt P08508, sequence (P08508 31-261): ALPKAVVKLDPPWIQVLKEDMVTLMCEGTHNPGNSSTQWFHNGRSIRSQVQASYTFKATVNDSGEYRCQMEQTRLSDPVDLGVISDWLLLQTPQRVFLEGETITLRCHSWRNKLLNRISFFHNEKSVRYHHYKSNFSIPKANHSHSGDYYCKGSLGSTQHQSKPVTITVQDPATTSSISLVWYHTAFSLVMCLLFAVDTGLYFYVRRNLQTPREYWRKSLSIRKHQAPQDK
substance,measurement,value
anti-CD25 clone PC-61 rat IgG1 (αCD25-r1) (antibody),A/I ratio (affinity for activatory FcγRIII against inhibitory FcγRIIb),< 1
